PMC7090004, “IL28A protein homotetramer structure is required for autolysosomal degradation of HCV-NS5A in vitro” (Cell Death & Disease, 2020)
One block for each molecule: values may come before it.

Experiments:
Flag-IL28A-D0 (human) = Flag-IL28A-D0 (human) (UniProt Q8IZJ0); assay: SDS-PAGE and Western blot (band of about 70 kDa)
[1] = target: the molecule itself; assay: SDS-PAGE and Western blot (tetramer and monomer bands)

stoichiometry N (Flag-IL28A-D0 (human)): 4
Molecule: Flag-IL28A-D0 (from UniProt Q8IZJ0 26-200) (natural protein)

B1: Interferon lambda-2 (IL28A), wild type (natural protein, human, UniProt Q8IZJ0 26-200, looked up)
chain: VPVARLHGALPDARGCHIAQFKSLSPQELQAFKRAKDALEESLLLKDCRCHSRLFPRTWDLRQLQVRERPMALEAELALTLKVLEATADTDPALVDVLDQPLHTLHHILSQFRACIQPQPTAGPRTRGRLHHWLYRLQEAPKKESPGCLEASVTFNLFRLLTRDLNCVASGDLCV
notes: also called WT IL28A; IL28A overexpression construct
stoichiometry N [1]: 4
